Tests used:
[1] = target: T1, recombinant human PD-L1-His (Novoprotein, Cat. 315) (human, UniProt Q9NZQ7 19-239); assay: SPR, Biacore T200, antibody captured, PD-L1-His injected, 1:1 model, 25 C
T1 construct: Bought protein; also called human PD-L1 recombinant protein; human PDL1 protein; not shown: His tag
Method: (§1) Biacore T200 (GE Healthcare) was used to determine binding affinity of the PD-L1 antibody to the human and cynomolgus monkey PD-L1-His proteins. Anti-human IgG Fc (Genway, Cat. GWB-20A705) was immobilized on CM5 chip (GE Healthcare, Cat. BR-1005-30) at 25° C. Anti-human Fc (Genway, Cat. GWB-20A705) was diluted to […] with Acetate pH5.0 (GE Healthcare, BR-1003-51). The Amine method in the Immobilization method was used to immobilize. Alternatively, a commercially available Protein A (GE Healthcare, Cat. 29127556) chip was used for detection. […] In each cycle, the antibody to be tested was captured on the fixed CM5 chip, then injected with recombinant human PD-L1-His (Novoprotein, Cat. 315) and cynomolgus monkey PD-L1-His protein (Sino Biological, Cat. 90251-CO8H), and finally regenerated with Glycine pH1.5. The mobile phase was HBS-EP+Buffer (GE Healthcare, Cat. BR-1006-69), the flow rate was 30 μL/min, and the binding time was 300 seconds. The regeneration flow rate was 30 μL/min and the time was 30 seconds. Using Biacore T200 evaluation software (version 3.0), a 1:1 binding model was used to analyze the experimental data, fit the equilibrium dissociation constant KD of the antibody and antigen, and determine the binding rate constant Ka and dissociation rate constant Kd.

[2] = target: T2, cynomolgus monkey PD-L1-His protein (Sino Biological, Cat. 90251-CO8H) (cynomolgus monkey, UniProt G7PSE7 19-238); assay: as above
T2 construct: Bought protein; also called cynomolgus monkey PD-L1 recombinant protein
Method: as §1

[3] = target: T3, recombinant human PD-L1 protein (Sino Biological, Cat. 10084-H05H) (human, UniProt Q9NZQ7 19-239); assay: competitive ELISA: PD-L1 coated, antibody titrated against PD-1-His, anti-His-HRP
T3 construct: also called PD-L1-mFc; human PD-L1 protein fused with mouse Fc
Method: (§2) The recombinant human PD-L1 protein (Sino Biological, Cat. 10084-H05H) was diluted with carbonate buffer and added to a 96-well plate at a final concentration of […]. […] Then HRP-labeled anti-His tag antibody (MBL, Cat. D291-7) was added, and color development was performed with TMB. After termination with 1M sulfuric acid, OD values (dual wavelength 450 nm-630 nm) were read. The competitive binding curve of the test antibody can be drawn by matching the antibody concentration with the OD value to calculate the IC50 value.

[4] = target: T1, recombinant human PD-L1-His …; assay: SPR, Biacore T200, antibody captured, human PD-L1-His injected, 1:1 model, 25 C
Method: as §1

[5] = target: T4, PD-L1 on the surface of CHO-PD-L1 cells (UniProt Q9NZQ7 19-290, limits assumed); assay: flow cytometry on CHO-PD-L1 cells, anti-human IgG PE, MFI fold, ng/ml is the unit of the concentration axis
T4 construct: whole, on cells; also called CHO-PD-L1 cells (Nanjing Yongshan Biotechnology); CHO cell line (GenScript, Cat. M00613) stably transfected with PD-L1
Method: A gradient concentration of antibodies to be detected (final concentration of antibody: 10000 ng/ml-0.1 ng/ml, 10-foldserial dilution) were incubated with CHO-PD-L1 cells (Nanjing Yongshan Biotechnology Co., Ltd., 10⁵ cells/well) with high expression of PD-L1 on the cell surface at 4° C. ° C. for 30min. After incubation, 1:250 diluted anti-human IgG PE fluorescent antibody (eBioscience, Cat. 12-4998-8) was added, and incubated at 4° C. for 30 min. The fluorescent antibody specifically bound to the Fc fragment of the antibody to be detected. The fluorescent intensity of PE was detected by FACS, and the ability of the antibody to be detected to bind to PD-L1 protein highly expressed on the cell surface was analyzed. […] MFI fold=MFI value of the experimental group/MFI value of the control group without drugs.

[6] = target: T3, recombinant human PD-L1 protein (Sino …); assay: competitive ELISA: coated human PD-L1 protein, antibody titrated together with human PD-1-His, bound PD-1-His detected with HRP anti-His; panel A experiment (the text prints only the panel B value)
Method: as §2

T1 sequence (Q9NZQ7 19-239 limits assumed): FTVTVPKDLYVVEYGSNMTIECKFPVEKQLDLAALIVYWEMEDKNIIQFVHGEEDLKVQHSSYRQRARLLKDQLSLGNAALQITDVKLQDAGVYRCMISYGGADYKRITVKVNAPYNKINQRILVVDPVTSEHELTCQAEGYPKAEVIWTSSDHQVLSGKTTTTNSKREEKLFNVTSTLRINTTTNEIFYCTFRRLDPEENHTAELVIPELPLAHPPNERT
T3 sequence (Q9NZQ7 19-239 limits assumed): as above
T2 sequence (G7PSE7 entry or part of it limits assumed): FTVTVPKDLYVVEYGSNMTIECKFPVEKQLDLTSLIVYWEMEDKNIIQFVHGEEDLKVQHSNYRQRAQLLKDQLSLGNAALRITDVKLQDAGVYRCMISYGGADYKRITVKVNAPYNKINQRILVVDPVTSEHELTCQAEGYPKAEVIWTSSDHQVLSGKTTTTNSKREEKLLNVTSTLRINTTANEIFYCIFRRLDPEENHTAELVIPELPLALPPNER
T4 sequence (Q9NZQ7 19-290 limits assumed): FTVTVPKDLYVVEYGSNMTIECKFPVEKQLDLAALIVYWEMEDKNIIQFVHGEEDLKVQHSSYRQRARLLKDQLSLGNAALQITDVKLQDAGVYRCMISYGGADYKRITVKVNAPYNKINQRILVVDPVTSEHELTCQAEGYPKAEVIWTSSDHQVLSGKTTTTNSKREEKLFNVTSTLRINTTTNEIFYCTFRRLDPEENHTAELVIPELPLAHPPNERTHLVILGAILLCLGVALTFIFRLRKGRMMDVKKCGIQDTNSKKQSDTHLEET

B1: PDL1-156 (antibody, V domains shown)
VH: EVQLQESGPELVKPGASVKISCKASGYTFTDYYMNWVRQSHGKSLEWIGDINPNNGDTSYNQKFKGKATLTVDKSSSTAYMDLRSLTSEDSAVYYCASSVMDYWGQGTTVTVSS
VL: DIVLTQSPALMSASPGEKVTMTCSASSSVNYVYWYQQKPRSSPKPWIYLTFNLASGVPARFSGSGSGTSYSLTISSMEAEDAATYYCQQWSSNPLTFGAGTKLEIK
Kd [1]: 0.291 nM
Kd [2]: 0.375 nM
IC50 [3]: 0.221 µg/mL
Kd [4]: 0.291 nM
koff [4]: 0.000233 s⁻¹
kon [4]: 802000 M⁻¹ s⁻¹
EC50 [5]: 0.0235 µg/mL
IC50 [6]: 0.14 µg/mL
